From patent publication EP4659811A1

What was measured:
[1] = molecular target: VP1 pentamer of BKV genotype II (recombinant) (BK virus genotype II), P14996; experiment: ELISA, coated VP1 pentamer; details: remark: other sources report otherwise
[2] = molecular target: VP1 pentamer of BKV genotype IV (recombinant) (BK virus genotype IV), P14996; experiment: ELISA, coated VP1 pentamer; details: remark: other sources report otherwise

B1: antibody B7P3 (antibody, V domains shown)
VH: EVQLVESGGGVVQPGRSLRLSCAASGFTFSNFGMHWVRQPPGKGLEWVAVISYDGSDKFYADSVKGRFTISRDNFKNTLYVQMNSLRAEDTAVYYCAKDRVRTKYYYDHSGPFDYWGRGTLVTVSS
VL: SYVLTQPPSVSVAPGQTARIACGGNNIGSKSVHWYQQRPGQAPVLVVYDDDDRPSGIPERFSGSNSGNTATLTISRVEAGDEADYFCQVWMTNSDRPVFGGGTKLTVL
[1]
  EC50: 5.5 µg/mL

B2: antibody E10P5 (antibody, V domains shown)
VH: QVQLQESGPGLVKPSQTLSLTCSVSGGSISSGNYYWSWIRQPAGKGLEWIGRIYTSGNTNYNPSLKSRVTMSVDTSKNQFSLKLSSVTATDTAVYYCARVRRDGYNAFDYWGQGTLVTVSS
VL: SYELTQPPSVSVSPGQTASIDCSGHNLGDKFTCWYQQKPGQSPVLVIYQDSKRPSGIPERFSGSNSGNTATLTISGTQAMDEADYYCQAWDSDTLYVFGTGTTVTVL
[1]
  EC50: 0.065 µg/mL

B3: antibody G7P3 (antibody, V domains shown)
VH: EVQLVESGGGLVQPGGSLRLSCAASGFSFGSYSMNWVRQAPGKGLEWVSHISSGSSSIYYADSVKGRFTISRDSVKNSLYLQMNNLRAEDTAVYYCARGWTGYDAFDIWGQGTMVTVSS
VL: DIQMTQSPSSLSASVGDRVTITCRASQVISNYLAWYQEKPGKVPKLLIYAASTLQSGVPSRFSGSGTGTDFTLTIRSLQPEDVATYYCQKYNNAPLTFGGGTKVEIK
[1]
  EC50: 0.04 µg/mL

B4: antibody E8P5 (antibody, V domains shown)
VH: EVQLVESGGGLVHPGGSLRLSCAASGFRFGTYSMNWVRQAPGKGLEWVSHISSGSSSIYYADSVKGRFTISRDSVKNSLYLQMNNLRAEDTAVYFCARGWTGYDAFDIWGQGTMVTVSS
VL: DIQMTQSPSSLSASVGDRVTITCRASQVISNYLAWYQEKPGEVPKLLIYAASTLQSGVPSRFSGSGTGTDFTLTISSLQPEDVATYYCQKYNNAPLTFGGGTKVEIK
[1]
  EC50: 0.08 µg/mL

B5: antibody C4P7 (antibody, V domains shown)
VH: EVQLLESGGGLVQPGGSLRLSCAASGFTFSSYAMSWVRQAPGKGLEWVSSLTGSGGSTYYRDSVKGRFTIFRDNSKKTLYMQMNSLRAEDTAVYYCAKEGAYSYDFWYFDLWGRGTLVTVSS
VL: EIVLTQSPGTLSLSPGERATLSCRASQTVSGNYLAWYQQKPGQSPSLLIYGASSRATGIPDRFTGSGSGTDFTLTISRLEPADFAVYYCQQYGRPLTFGGGTKVEIK
[1]
  EC50: 5 µg/mL

B6: antibody C10P8 (antibody, V domains shown)
VH: QVQLQESGPGLVKPSQTLSLTCTVSGGSISSGRYYWSWIRQPAGKGLEWIGRVYFSGSTNYNPSLKNRVTLSVDTSKNQFSLKLSSVIAADTAVYYCARAVRDYGDSYSFDYWGQGTLVTVSS
VL: QSALTQPASVSGSPGQSITISCTGSSSDIGGYNYVSWYQVHPGKAPHLKIYDVVNRPSGVSNRFPGSKSGNTASLTISGLLADDEAYYYCCSYSIRGTPVFGGGTKLTVL
[2]
  EC50: 10 µg/mL
